{
  "source": "patent US6013288A",
  "about": "“Process for manufacturing beer” (Suntory Limited, priority 1995, dated 2000)",
  "molecules": {"B1": {"name": "nucleoside phosphorylase derived from calf spleen: Nucleoside phosphorylase derived from calf spleen (Boehringer), EC 2.4.2.1 (protein, UniProt P55859 1-289, looked up)", "Purine nucleoside …": "MANGYTYEDYQDTAKWLLSHTEQRPQVAVICGSGLGGLVNKLTQAQTFDYSEIPNFPESTVPGHAGRLVFGILNGRACVMMQGRFHMYEGYPFWKVTFPVRVFRLLGVETLVVTNAAGGLNPNFEVGDIMLIRDHINLPGFSGENPLRGPNEERFGVRFPAMSDAYDRDMRQKAHSTWKQMGEQRELQEGTYVMLGGPNFETVAECRLLRNLGADAVGMSTVPEVIVARHCGLRVFGFSLITNKVIMDYESQGKANHEEVLEAGKQAAQKLEQFVSLLMASIPVSGHTG"}},
  "experiment": "Decomposition of purine nucleosides in wort by nucleoside phosphorylase",
  "assay_type": "biochemical",
  "conditions": "7 units/ml, 3 hours at 30° C., wort extract concentration 12.5%",
  "protocol": "Nucleoside phosphorylase derived from calf spleen (Boehringer) was added to wort having an extract concentration of 12.5% to a concentration of 7 units/ml, and allowed to react for 3 hours at 30° C. The amount of purine compounds in the wort to which enzyme was added and a wort held for 3 hours at 30° C. without adding enzyme as the control were measured using the method described in Experiment 1.",
  "data": [
    {"molecule": "B1", "values": [
      {"measurement": "decomposition ratio of each purine nucleoside", "result": "roughly 60%"}
    ]}
  ]
}
